Assay results from US20170183403A1 (UNIVERSIT T Z RICH, published 2017).

Experiments:
Assay in all cases: peptide microarray (RepliTope), 15-mers
Reference peptide no. 3 = target: T1, Reference peptide no. 3
T1 construct: hIL-2 15-mer, first library, on microarray; also called peptide 3
T1 peptide: TKKTQLQLEHLLLDL
Description: (§1) Additional incubations are with unrelated antibodies from the same isotype (mouse control IgG2a/lambda and mouse control IgG2a/kappa), and secondary antibodies (anti-mouse IgG (Thermo 84545, label DL650) or anti-mouse IgG (JIR 115-175-072, Label Cy5)) to assess unspecific binding due to the detection antibody. The experiments are performed essentially as described in Maksimov P, et al. 2012, PLoS One 7:e34212. doi:10.1371/journal. pone. 0034212.
(§2) The determination of peptide-antibody binding was performed by RepliTope-analysis where the peptide microarray (triplicate) was incubated with the primary antibody followed by a fluorescently labelled secondary antibody directed against the Fc-part of the primary one. All steps were performed on a TECAN microarray processing station enabling highly reliable and reproducible washing and incubation steps. After performing the incubation steps and subsequent to the final washing steps (to remove the unbound secondary antibodies) the microarrays were dried using a nitrogen stream and scanned in a high resolution microarray scanning system with appropriate wavelength settings. Control incubations were performed with an unrelated antibody having the same isotype to exclude false positive signals.
(§3) The resulting images were analyzed und quantified using spot-recognition software GenePix (Molecular Devices). For each spot, the mean signal intensity was extracted (between 0 and 65535 arbitrary units). For further data evaluation, the MMC2 values were determined. The MMC2 equals the mean value of all three instances on the microarray. Except the coefficient of variation (CV)—standard-deviation divided by the mean value—is larger 0.5, in this case the mean of the two closest values (MC2) is assigned to MMC2.

Reference peptide no. 6 = target: T2, Reference peptide no. 6
T2 construct: hIL-2 15-mer, first library, on microarray; also called peptide 6
T2 peptide: HLLLDLQMILNGINN
Description: as §1, §2, §3

Reference peptide no. 8 = target: T3, Reference peptide no. 8
T3 construct: hIL-2 15-mer, first library, on microarray; also called peptide 8
T3 peptide: QMILNGINNYKNPKL
Description: as §1, §2, §3

Reference peptide no. 11 = target: T4, Reference peptide no. 11
T4 construct: hIL-2 15-mer, first library, on microarray; also called peptide 11
T4 peptide: YKNPKLTRMLTFKFY
Description: as §1, §2, §3

Reference peptide no. 12 = target: T5, Reference peptide no. 12
T5 construct: hIL-2 15-mer, first library, on microarray; also called peptide 12
T5 peptide: PKLTRMLTFKFYMPK
Description: as §1, §2, §3

Reference peptide no. 19 = target: T6, Reference peptide no. 19
T6 construct: hIL-2 15-mer, first library, parental Cys replaced by Ser, on microarray; also called peptide 19
T6 peptide: HLQSLEEELKPLEEV
Description: as §1, §2, §3

Reference peptide no. 22 = target: T7, Reference peptide no. 22
T7 construct: hIL-2 15-mer, first library, on microarray; also called peptide 22
T7 peptide: KPLEEVLNLAQSKNF
Description: as §1, §2, §3

Reference peptide no. 23 = target: T8, Reference peptide no. 23
T8 construct: hIL-2 15-mer, first library, on microarray; also called peptide 23
T8 peptide: EEVLNLAQSKNFHLR
Description: as §1, §2, §3

Reference peptide no. 24 = target: T9, Reference peptide no. 24
T9 construct: hIL-2 15-mer, first library, on microarray; also called peptide 24
T9 peptide: LNLAQSKNFHLRPRD
Description: as §1, §2, §3

Reference peptide no. 27 = target: T10, Reference peptide no. 27
T10 construct: hIL-2 15-mer, first library, on microarray; also called peptide 27
T10 peptide: HLRPRDLISNINVIV
Description: as §1, §2, §3

Reference peptide no. 30 = target: T11, Reference peptide no. 30
T11 construct: hIL-2 15-mer, first library, on microarray; also called peptide 30
T11 peptide: NINVIVLELKGSETT
Description: as §1, §2, §3

Reference peptide no. 32 = target: T12, Reference peptide no. 32
T12 construct: hIL-2 15-mer, first library, parental Cys replaced by Ser, on microarray; also called peptide 32
T12 peptide: LELKGSETTFMSEYA
Description: as §1, §2, §3

Reference peptide no. 33 = target: T13, Reference peptide no. 33
T13 construct: hIL-2 15-mer, first library, parental Cys replaced by Ser, on microarray; also called peptide 33
T13 peptide: KGSETTFMSEYADET
Description: as §1, §2, §3

Reference peptide no. 34 = target: T14, Reference peptide no. 34
T14 construct: hIL-2 15-mer, first library, parental Cys replaced by Ser, on microarray; also called peptide 34
T14 peptide: ETTFMSEYADETATI
Description: as §1, §2, §3

Reference peptide no. 37 = target: T15, Reference peptide no. 37
T15 construct: hIL-2 15-mer, first library, on microarray; also called peptide 37
T15 peptide: DETATIVEFLNRWIT
Description: as §1, §2, §3

Reference peptide no. 40 = target: T16, Reference peptide no. 40
T16 construct: hIL-2 15-mer, first library, parental Cys replaced by Ser, on microarray; also called peptide 40
T16 peptide: LNRWITFSQSIISTL
Description: as §1, §2, §3

Reference peptide no. 43 = target: T17, Reference peptide no. 43
T17 construct: second library: peptide 11 with F(62) to Ala; also called peptide 43
T17 peptide: YKNPKLTRMLTAKFY
Description: as §1, §2, §3

Reference peptide no. 45 = target: T18, Reference peptide no. 45
T18 construct: second library: peptide 13 with F(62) to Ala; also called peptide 45
T18 peptide: TRMLTAKFYMPKKAT
Description: as §1, §2, §3

Reference peptide no. 46 = target: T19, Reference peptide no. 46
T19 construct: second library: peptide 14 with F(62) to Ala; also called peptide 46
T19 peptide: LTAKFYMPKKATELK
Description: as §1, §2, §3

Reference peptide no. 47 = target: T20, Reference peptide no. 47
T20 construct: second library: peptide 11 with Y(65) to Ala; also called peptide 47
T20 peptide: YKNPKLTRMLTFKFA
Description: as §1, §2, §3

Reference peptide no. 49 = target: T21, Reference peptide no. 49
T21 construct: second library: peptide 13 with Y(65) to Ala; also called peptide 49
T21 peptide: TRMLTFKFAMPKKAT
Description: as §1, §2, §3

Reference peptide no. 50 = target: T22, Reference peptide no. 50
T22 construct: second library: peptide 14 with Y(65) to Ala; also called peptide 50
T22 peptide: LTFKFAMPKKATELK
Description: as §1, §2, §3

Reference peptide no. 51 = target: T23, Reference peptide no. 51
T23 construct: second library: peptide 15 with Y(65) to Ala; also called peptide 51
T23 peptide: KFAMPKKATELKHLQ
Description: as §1, §2, §3

Reference peptide no. 57 = target: T24, Reference peptide no. 57
T24 construct: second library: peptide 21 with L(92) to Ala; also called peptide 57
T24 peptide: EELKPLEEVLNAAQS
Description: as §1, §2, §3

Measured: binding result

B1: NARA1 (antibody, mouse IgG2a, kappa, V domains shown)
VH: QVQLQQSGAELVRPGTSVKVSCKASGYAFTNYLIEWVKQRPGQGLEWIGVINPGSGGTNYNEKFKGKATLTADKSSSTAYMQLSSLTSDDSAVYFCARWRGDGYYAYFDVWGAGTTVTVSS
VL: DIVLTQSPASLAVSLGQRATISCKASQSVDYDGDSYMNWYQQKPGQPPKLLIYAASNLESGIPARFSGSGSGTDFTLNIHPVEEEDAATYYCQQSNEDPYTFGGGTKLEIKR
notes: Mouse monoclonal from hybridoma; Isotype controls used were mouse IgG2a; also called anti-IL2 (NARA1) antibody; monoclonal antibody NARA1
no binding: Reference peptide no. 3 | Reference peptide no. 6 | Reference peptide no. 8 | Reference peptide no. 11 | Reference peptide no. 12 | Reference peptide no. 19 | Reference peptide no. 22 | Reference peptide no. 23 | Reference peptide no. 24 | Reference peptide no. 27 | Reference peptide no. 30 | Reference peptide no. 32 | Reference peptide no. 33 | Reference peptide no. 34 | Reference peptide no. 37 | Reference peptide no. 40 | Reference peptide no. 43 | Reference peptide no. 45 | Reference peptide no. 46 | Reference peptide no. 47 | Reference peptide no. 49 | Reference peptide no. 50 | Reference peptide no. 51 | Reference peptide no. 57
